Measurements: US20120122765A1, “COMPOUNDS AND RELATED METHODS FOR MANIPULATING PARP-1-DEPENDENT CELL DEATH” (priority 2010, published 2012)
Changes are numbered by the printed parent chain. In names and notes the source's numbering stands. Read-outs that look alike come from different tables or passages of the source.

B1: Pbm-AIF: full length mouse AIF mutant R588A;K589A;K592A (PAR binding motif mutant) (protein)
chain: MFRCGGLAGAFKQKLVPLVRTVYVQRPKQRNRLPGNLFQQWRVPLELQMARQMASSGSSGGKMDNSVLVLIVGLSTIGAGAYAYKTIKEDQKRYNERVMGLGLSPEEKQRRAIASATEGGSVPQIRAPSHVPFLLIGGGTAAFAAARSIRARDPGARVLIVSEDPELPYMRPPLSKELWFSDDPNVTKTLQFRQWNGKERSIYFQPPSFYVSAQDLPNIENGGVAVLTGKKVVHLDVRGNMVKLNDGSQITFEKCLIATGGTPRSLSAIDRAGAEVKSRTTLFRKIGDFRALEKISREVKSITVIGGGFLGSELACALGRKSQASGIEVIQLFPEKGNMGKILPQYLSNWTMEKVKREGVKVMPNAIVQSVGVSGGRLLIKLKDGRKVETDHIVTAVGLEPNVELAKTGGLEIDSDFGGFRVNAELQARSNIWVAGDAACFYDIKLGRRRVEHHDHAVVSGRLAGENMTGAAKPYWHQSMFWSDLGPDVGYEAIGLVDSSLPTVGVFAKATAQDNPKSATEQSGTGIRSESETESEASEITIPPSAPAVPQVPVEGEDYGKGVIFYLRDKVVVGIVLWNVFNRMPIAAAIIADGEQHEDLNEVAKLFNIHED
B2: WT-AIF: full length wild type mouse AIF (apoptosis-inducing factor), recombinant (protein)
chain: B1 chain with A588R, A589K, A592K

Assays:
Hq cortical neurons = experiment: NMDA excitotoxicity in Hq cortical neurons; assay type: cell-based, mouse; conditions: DPQ (30 μM) or zVAD (100 μM) in addition to NMDA
Method: HQ cortical neuron cells were transduced with lentivirus carrying WT-AIF-Flag or Pbm-AIF-Flag. Non-transduced neurons and GFP-lentivirus infected cells were used as negative controls. […] In those photos, blue indicates Hoechst 33342 staining and red indicates propidium iodide staining. […] The cytotoxicity in these Hq cortical neurons was measured at 24 hours, 36 hours, and 48 hours after NMDA (500 μM for 5 min) treatment, and the data for this is reported in the graph of FIG. 18B.

HeLa cells = experiment: AIF nuclear translocation in HeLa cells after MNNG; assay type: cell-based; conditions: MNNG 50 μM for 15 minutes
Method: (§1) Unless otherwise set forth herein, immunocytochemistry, immunohistochemistry and confocal microscopy as referenced in the examples entailed the following materials and procedures. For immunocytochemistry, cells were fixed 2 hours after treatment with 4% paraformaldehyde, permeabilized with 0.05% Triton X-100, and blocked with 3% bovine serum albumin in PBS. AIF was visualized by 2 μg/ml mouse anti-Flag/Cyt AffiniPure Donkey Anti-Mouse IgG or rabbit anti-AIF/Cy3 AffiniPure Donkey Anti-Rabbit IgG. Immunohistochemistry was performed using the antibody against Flag. Immunofluorescence analysis thereafter was carried out by using a LSM510 confocal laser scanning microscope (obtained from Carl Zeiss Microlmaging) as described by H. Wang et al. (J. Neurosci, 2004).

[1] = test system: Hq mouse cortical neuronal cultures; experiment: AIF translocation to the nucleus in Hq cortical neurons; assay type: cell-based; conditions: 100 nM staurosporine, 24 hours
Method: as §1, with “For immunocytochemistry, cells were fixed 2 hours after treatment with 4% paraformaldehyde, permeabilized with 0.05% Triton X-100, and blocked with 3% bovine serum albumin in PBS.” left out
Again, AIF translocation to the nucleus was monitored two hours after NMDA (500 μM, 5 minutes) treatment sufficient to initiate parthanatos in wild-type cells.

PAR [2] = experiment: PAR overlay assay of full length AIF and mutants; assay type: binding
Method: (§2) The following experiment was performed to confirm whether AIF in fact binds to PAR. Applicants performed 3 trials of an overlay assay on recombinant AIF with affinity-purified biotin-labeled PAR. Histone H3, which binds to PAR with high affinity, was included as a positive control and bovine serum albumin (“BSA”) was included as a negative control, as described by P. Chang et al. (Nat Cell Bio, 2005). FIG. 1B depicts three photos side by side for gels representative of all trials for these overlay assays. […] Thus, Applicants took the results of these two tests as confirming that AIF binds to PAR in vitro.
To further study these potential AIF PBMs, Applicants performed the following experiment to examine the effect of mutating AIFm amino acids 222-244, 441-463, and/or 567-592 to poly-alanine on the ability of AIF to bind PAR. FIG. 6 comprises black and white photographs of representative gels from an overlay assay of His-tagged WT-AIF, AIFm222-244, AIFm441-463, AIFm567-592, AIFΔ567-592 (i.e., a mutant lacking AAs 567-592), and AIF(K254A, R264A) (i.e., mutating K to A at 254 and R to A at 264) mutants with ^32P-labeled automodified PARP-1 (equivalent to 100 nM of PAR), purified ^32P-labeled PAR (100 nM), or purified ^32P-labeled PAR with either a 100-fold excess of DNA or cold PAR. […] The same can be assumed to corresponding sequences for other species, such as those identified in FIG. 4.
Additionally, to exclude the possibility that PAR polymer is binding to AIF through its DNA-binding domain, PAR polymer binding was assessed against the full length AIF DNA-binding mutant AIFK254A;R264A as described by H Cande et al. (Nat Struct Biol, 2002).
Finally, Human AIF (“AIFH”) is known to bind to DNA through a groove between the FAD-binding domain (“D1”) and C-terminal domain (“D3”). A mutant form of AIFH in which lysine 255 is substituted with alanine and arginine 265 is substituted with alanine (AIFK255A;R265A) completely lacks DNA binding. To investigate the possible contribution of the AIF DNA-binding domain to PAR binding, Applicants assessed PAR binding to AIFm mutated in the same way (AIFK254A;R264A). […] Thus, Applicants concluded that the AIF PAR-binding site is separable from its DNA-binding site, meaning that such binding could be inhibited by genetically modifying AIF without impacting the natural DNA binding capabilities of AIF or potentially by otherwise inhibiting the binding action of the PBMs.

PAR [3] = experiment: EMSA with 32P-labeled PAR; assay type: binding
Method: as §2
(§3) To further ascertain whether full length recombinant AIF-Tm produced above (henceforth named “Pbm-AIF”) binds PAR, Applicants performed three iterations of an EMSA assay for PAR binding with recombinant WT-AIF and Pbm-AIF, using histone H3 as a control. […] FIG. 9 comprises a black and white photograph of EMSA gels showing representative results for WT-AIF and Pbm-AIF using ^32P-labeled PAR.

PAR [4] = experiment: biotin-labeled PAR pull-down assay; assay type: binding; conditions: biotin-labeled PAR-conjugated NeutrAvidin beads
From the text: To confirm that Pbm-AIF fails to bind PAR, Applicants also performed four trials of biotin-labeled PAR pull-down assays on WT-AIF, Pbm-AIF, and histone H3. For this experiment, the pull-down assay used biotin-labeled PAR-conjugated NeutrAvidin beads. FIG. 10A comprises a composite black and white photograph depicting typical gels obtained in this pull-down assay.

PAR [5] = experiment: in vitro PAR-binding assay, twenty percent TBE-PAGE analysis
Method: To begin, 300 nM of purified WT-AIF or Pbm-AIF (i.e., AIF mutated in its PAR binding region) were incubated with ^32P-labeled PAR for 10 minutes at room temperature. Thereafter, samples were incubated with AIF antibody-linked protein G slurry for 1 hour. Samples were washed two times with PBS and boiled with 1× Laemmli sample buffer (obtained from BIO-RAD). Each soluble fraction was resolved in 20% TBE-PAGE. The gel was heat dried and developed using the Typhoon 9400 Imager.
as §3

isolated HeLa nuclei = experiment: nuclear shrinkage assay; assay type: biochemical; conditions: non-tagged proteins incubated with isolated HeLa nuclei
Method: Nuclei were obtained by purification from HeLa cells as described previously by A. Mandir et al. (J Neurosci, 2000). For the assay, purified nuclei were incubated with recombinant WT-AIF or Pbm-AIF (20 ng/ml) in the presence of ATP (2 mM), phosphocreatine (20 mM) and creatine kinase (50 μg/ml) for 90 minutes at 37° C. Nuclei were stained by DAPI and examined by fluorescence microscopy.
FIG. 11D comprises an array of color photographs showing the result of fluorescence microscopy for various cultures, as labeled in the figure, following DAPI staining. […] FIG. 11E is a chart reporting the result of a quantification of nuclei treated by WT-AIF, Pbm-AIF, and control (“CTL”), using Caspase 3 as a positive control.

isolated mitochondria = experiment: AIF binding to isolated mitochondria; conditions: for binding to mitochondria versus concentration: 0.1 ng/μl to 120.5 ng/μl, 30 minutes, room temperature; for binding percentage to mitochondria over time: 2.5 ng/μl, mitochondria 200 μg/ml, after 5 minutes; for depletion from the supernatant by mitochondria: untreated mitochondria, absence of PAR
Method: One commonly accepted estimate is that approximately 20%-30% of AIF resides on the cytosolic side of the outer membrane of mitochondria, where it is poised to be rapidly released by PAR following PARP-1 activation. Applicants thus wanted to perform tests of AIF binding to mitochondria determine how readily purified WT-AIF and Pbm-AIF bind to mitochondria in a time- and concentration-dependent manner. Specifically, recombinant WT-AIF (2.5 ng/μl) and Pbm-AIF (2.5 ng/μl) were incubated with isolated mitochondria (200 μg/ml) for 1 minute, 5 minutes, 10 minutes, 15 minutes, 20 minutes or 30 minutes. […] The results of this portion of the experiment is provided by the graph of FIG. 15B.
To investigate the mechanism underlying mitochondrial AIF release following PARP-1 activation, Applicants incubated isolated mitochondria with purified non-tagged forms of AIF in the presence or absence of PAR and followed this by centrifugation to remove the mitochondria. Detection of AIF remaining in the supernatant was thereafter performed through immunoblot analysis.
The supernatant collected in the experiments of Example 16 were also analyzed for the presence of Tom20 and cyclochrome c.

Molecule | effect on NMDA-induced cortical neuron death (Hq cortical neurons) | effect on nuclear translocation of AIF after MNNG (HeLa cells) | translocation to the nucleus after staurosporine [1] | PAR binding (PAR [2]; His-tagged proteins, purified PAR, normalized to WT-AIF, result in words) | reduced PAR binding (PAR [2]; radioactive signal normalized to WT-AIF) [%] | PAR mobility shift (PAR [3]) | pull-down with biotin-labeled PAR (PAR [4]) | binding to 32P-PAR (PAR [5]) | chromatin condensation and nuclear shrinkage (isolated HeLa nuclei) | binding to mitochondria versus concentration (isolated mitochondria) | binding percentage to mitochondria over time (isolated mitochondria) | effect of PAR on association with mitochondria (isolated mitochondria; 5 nM PAR) | effect of PAR on association with mitochondria (isolated mitochondria; 50 nM PAR) | effect of PAR on association with mitochondria (isolated mitochondria; 100 nM PAR) | depletion from the supernatant by mitochondria (isolated mitochondria) | effect of hundred fold excess of salmon sperm DNA on PAR binding (PAR [2]; overlay assay, 32P-labeled PAR) | binding to biotin-labeled PAR (PAR [2]; overlay assay, affinity-purified biotin-labeled PAR) | effect of salmon sperm DNA on PAR binding (PAR [2]; salmon sperm DNA at 760 μM) | PAR mobility shift (PAR [3]; listed as AIFm)
O=C1NCCc2c(OCCCCN3CCCCC3)cccc21 [DPQ, 3,4-Dihydro-5[4-(1-piperindinyl)butoxy]-1(2H)-isoquinoline, reference compound] | inhibited NMDA-induced cortical neuron death | prevented the nuclear translocation of both endogenous AIF and WT-AIF-Flag | – | – | – | – | – | – | – | – | – | – | – | – | – | – | – | – | –
B1 | – | – | translocated to the nucleus | nearly abolished PAR-binding | 90 | no effect on PAR mobility | only a barely detectable amount | failed to bind to ^32P-PAR | comparable levels of chromatin condensation and nuclear shrinkage | bound to the mitochondria in a concentration dependent manner | equivalent | failed to affect association | barely detectable effects | partially reduced mitochondrial binding | effectively depleted | – | – | – | –
B2 | – | – | – | – | – | caused a PAR mobility shift in a concentration-dependent manner | pulled down with biotin-labeled PAR | bound to ^32P-PAR of different lengths | comparable levels of chromatin condensation and nuclear shrinkage | bound to the mitochondria in a concentration dependent manner | equivalent | failed to affect association | increased the concentration of WT-AIF in the supernatant | almost completely abolished | effectively depleted | fails to disrupt | bound to biotin-labeled PAR in a concentration-dependent manner | failed to disrupt PAR binding | cause a shift of PAR polymer
